How the values were obtained:
EuCGD (DfgA-B complex) = EuCGD (DfgA-B complex) ([Eubacterium] cellulosolvens, UniProt I5AX49+I5AX50); assay: steady-state kinetics, HPLC of aglycone; settings: 30 °C, 2 min, 2 μM enzyme; enzymatically prepared substrate
purified protein [1] = substrate: O=C1[C@@H](O)[C@H](c2c(O)cc3oc4cc(O)c(O)cc4c(=O)c3c2O)O[C@H](CO)[C@H]1O; assay: purified protein; settings: 30 °C, 30 min, 2 μM enzyme, enzymatically prepared substrate
purified protein [2] = substrate: O=C1[C@@H](O)[C@H](c2c(O)cc3oc(-c4ccc(O)c(O)c4)cc(=O)c3c2O)O[C@H](CO)[C@H]1O; assay: purified protein; settings: 30 °C, 2 μM enzyme, enzymatically prepared substrate
purified protein [3] = substrate: O=C1[C@@H](O)[C@H](c2c(O)cc3oc(-c4ccc(O)cc4)cc(=O)c3c2O)O[C@H](CO)[C@H]1O; assay: purified protein; settings: 30 °C, 2 μM enzyme, enzymatically prepared substrate
purified protein [4] = substrate: Cc1c(C(=O)O)c(O)cc2c1C(=O)c1c(O)c([C@@H]3O[C@H](CO)[C@@H](O)C(=O)[C@H]3O)c(O)c(O)c1C2=O; assay: purified protein; settings: 30 °C, 30 min, 2 μM enzyme, enzymatically prepared substrate
[5] = substrate: O=C1[C@@H](O)[C@H](c2c(O)cc3oc4cc(O)c(O)cc4c(=O)c3c2O)O[C@H](CO)[C@H]1O; assay: steady-state kinetics, HPLC of aglycone; assay type: biochemical, Microbacterium trichothecenolyticum; settings: 30 °C, 30 min, 2 μM enzyme, enzymatically prepared substrate
[6] = substrate: O=C1[C@@H](O)[C@H](c2c(O)cc3oc(-c4ccc(O)c(O)c4)cc(=O)c3c2O)O[C@H](CO)[C@H]1O; assay: steady-state kinetics, HPLC of aglycone; assay type: biochemical, Microbacterium trichothecenolyticum; settings: 30 °C, 30 min, 2 μM enzyme, enzymatically prepared substrate
[7] = substrate: O=C1[C@@H](O)[C@H](c2c(O)cc3oc(-c4ccc(O)cc4)cc(=O)c3c2O)O[C@H](CO)[C@H]1O; assay: steady-state kinetics, HPLC of aglycone; assay type: biochemical, Microbacterium trichothecenolyticum; settings: 30 °C, 30 min, 2 μM enzyme, enzymatically prepared substrate
[8] = substrate: O=C1[C@@H](O)[C@H](c2c(O)ccc3c(=O)c(-c4ccc(O)cc4)coc23)O[C@H](CO)[C@H]1O; assay: steady-state kinetics, HPLC of aglycone; assay type: biochemical, human intestinal bacterium PUE; settings: 30 °C, 2 min, 2 μM enzyme, enzymatically prepared substrate
[9] = substrate: O=C1[C@@H](O)[C@H](c2c(O)cc(O)c3c(=O)cc(-c4ccc(O)c(O)c4)oc23)O[C@H](CO)[C@H]1O; assay: steady-state kinetics, HPLC of aglycone; assay type: biochemical, human intestinal bacterium PUE; settings: 30 °C, 90 min, 5 μM enzyme, enzymatically prepared substrate
purified protein [10] = substrate: O=C1[C@@H](O)[C@H](c2c(O)cc(O)c3c(=O)cc(-c4ccc(O)c(O)c4)oc23)O[C@H](CO)[C@H]1O; assay: purified protein; settings: 30 °C, 30 min, 2 μM enzyme, enzymatically prepared substrate

In the case of `O=C1[C@@H](O)[C@H](c2c(O)cc3oc4cc(O)c(O)cc4c(=O)c3c2O)O[C@H](CO)[C@H]1O` [compound 5, 3’-oxo-mangiferin], the Km (EuCGD (DfgA-B complex)) is reported as greater than 5 mM.

B1: AgCGD1 (Arthrobacter globiformis NBRC 12137) (protein)
chain 1: MTSLGTPIQGVTLYSFTRAFHARQYDLDGLIRKVAAEGFGPGLELIGFSSLRGFPDGIDDAFVGQFRDLVAEVDLIPTSLAVNVDTGIRRDRLMNHDELVEYMSKQIEVAARLGFPIARVQISLTPDAMESLLPVAEKYGVTLALEVHADQHGAHERVLALRDRYEKLDSPLLGFTADWGATVTGFAPSLLEAYRRRGAAEDLLRQVVELWNGFYAEGPPNTQKVHGERFGAFIGLAARSGRPDLGIDFAINGTGLFGPAPLDTWLEIMPWVRHVHGKFFGIDENGEEPSVPVRDLVRQLVENGYSGAISSEYEGWHWNNWQDPFDIIRGEQAVQRSAAANAGSAMITDASEARRILNSHLAQPVRG
chain 2: MIADRIIEHGTLITRDGRAAVEVRIPWYRALPGSCIAGAALTVDGVAAPEDTLRWTMNNRTFSFEELVDETGEWWFPLDSAVLSGDLPVWDDQAEHEVRVDLKLCIPYIITDHGVLHIEEHDTKTMKVAQQ
B1 was tested, and the Km (purified protein [1]) was 3.7 ± 0.5 mM, the kcat (purified protein [1]) was 0.00283 ± 0.00017 s⁻¹ and the Km (purified protein [2]; 30 min) was 3.4 ± 0.3 mM. It also gave a kcat (purified protein [2]; 30 min) of 0.0095 ± 0.00033 s⁻¹, a Km (purified protein [3]; 30 min) of 3.5 ± 0.4 mM and a kcat (purified protein [3]; 30 min) of 0.0767 ± 0.0033 s⁻¹.

B2: MiCGD (CarB-C complex) (Microbacterium sp.) (protein)
chain 1: MTALALPRLGVTLYSFTPYYHAREYSFEDLIRIAGERDLGPGLEIVGYQSIKGFPKLPDGFVKDFRRRVDEAGLELSAMGANADAGIPHDRLLNEDELTEYMAHQLHTAKELGFPIVRVQHSVTPDLMERLLPLAEKLDLTMGMEIHSPHSVHHPKIQALVERYEKLGSPHLGFIPDWGASLTRLPPSALQTYAAADVPRELLDAYDRQWDVFHAEGVITTDAEQGAQFRRMRELNERFGGDDVSVRIGTNAVGLFGHQRPEDWSAIMPWVVHVHGKFYGIDENGEEPSVPHGLLLRQLVDAGYTGYISSEWEGWHWNTTDDPFEMVAWQHRLMRRIFGEIEAEAGVR
chain 2: MFRERIIVQDSLVADESGSAFRIRLPWYRALPLSTIEELSVTVDGTAFDPARLRIAVNDGEWALAEAQLRTDDVWFVLDDATVRLPGLVLDAGAHEVQATLSMRIPYLPVAGKPLSMAETDQKRMDVKELTA
Work on B2 yielded a Km (purified protein [4]) of 0.39 mM.

B3: EuCGD (DfgA-B complex) ([Eubacterium] cellulosolvens 6) (protein)
chain 1: MYRYEKKGPKRGVALYSYSAEFGLTKTLEDCFEDLHDMGAHGIEILANTHIENYPYPTDEWVEKWWRLCDKYEIVPVEYGNWIDSHVLGDRDLTTEESVEMLKRDIRLAHRLGFTVMRTKMPVINDLLEPVENWKEIIKGALPLAEELGIKMCPEIHTPSNLKGKLVNDFVEFIKETGTKNFGLNIDFSVFRTSFAEGEWVDPNYTPNKPEDIIPLLPYVYCCHAKFIHMSDDFKETTIPYEEVVKTMEDNGYEGYLLSEYEGADKYDEGYEVGQTLRKHHILLKNLLGD
chain 2: MEKQVIQSVGFRNIKNGNGEITGFQFKVKLPYYRGVFLSQIRPGTLFVDGQKIEKDQITWTINGEEYTNQEMRGDFKTHWATTKPAVLKVKMPGGLAQGYHDLKYGFCFTSSYMPPIIQDGLDPDKESMVYMPEFGHHVNERRLLIV
For B3, the Km (purified protein [2]; 2 min) was 11 mM, the kcat (purified protein [2]; 2 min) was 0.0045 s⁻¹ and the Km (purified protein [3]; 2 min) was 3.6 mM. The kcat (purified protein [3]; 2 min) was 0.003 s⁻¹.

B4: MtCGD (Microbacterium trichothecenolyticum) (protein)
chain 1: MTALGTPIQGVTLYSFTRAFHGREYDLEGLIRKTAADGFGPGLEIIGFSSFRGFPAIDDAYAGWFRDLIDEVGLVTTSLAVNADIGIHRDRLLNQDELIEYMTLQIKAAAKLGFPIARVQISIEPDSMEALAPIAEAHGVTLALEVHADQYASHPRILALRDRYEKVGSPFLGFTMDWGATVSGFAPSLIEAYRRRGASEELLGQVVDLWNTYYEQGPPADQADHGQRFGSFIGLAARHGRPDLGIDFGINGTGLFGPARVDDWRTIAPWIKHVHGKFFGIDENGEEPSVPVRDLVKLLVENGYNGAISSEYEGWHWNYWQSPFDIISDEQAVQRSAAEAAGSRMITDLAEARTQLGAWLPNTEGAHA
chain 2: MIPDRIIEQGTLRTDGPRAAVEVRLPWYRALPGSCIAGAELTIDGKTAPAESLRWEMNGAEFTFDELRTNIDEWWFPTDSAVLSGDLDIEADAEHEVTVGLTLYIPYIIISDTETLHIDEKNTKTMKAVAA
With B4 the Km [5] was 6.1 ± 1.4 mM, the kcat [5] was 0.01 ± 0.0012 s⁻¹ and the kcat [6] was 0.35 ± 0.033 s⁻¹. For the same molecule, the Km [7] was 8.2 ± 1.8 mM and the kcat [7] was 0.533 ± 0.083 s⁻¹.

B5: PuCGD (DgpB-C complex) (human intestinal bacterium PUE) (protein)
chain 1: MSNVKLGVTLYSFSTEYCQGKMTLEDCIRTAKELGAAGFEIVATQMIPSYPYVSDKFLGELKSICQYYDMEPVCYGANCDRGLRGDRNLTGDEMVAMAVRDIKNAHKMGCKVVREQWLMGPENFAKLAPFAEHYGVKVGIEVHNPETPITQSTKDYIAAIDKTGSKYLGLIPDFGCFANKPNKMNWDNALADGADKKLLEMARDMKYDNVPYDEAVKRLTAAGAKKVELTTMRDMYTFLTFKKDVSAELQGLKDMIPYCIHMHGKYHYMYENLQEAAIPYDDIMKIVSESDYDGYIVSEYEEYNSGHSIEMLRRHLKMMHNFVD
chain 2: MGLALRLNFVDVVCDDSLKNFWANGKKIGYQFDVRLSYYRGHFLSTIDEIGVKVDGVDVPAENISLCLDGKEYGVAELHDLVNVFWPIIEPATIKVFQPGGLSEEEHDVDFTLYFRSPYMALSETEYQSIDSCGSKRLNVQN
With B5 the Km [8] was 12 mM, the kcat [8] was 0.00683 s⁻¹ and the Km [9] was 0.79 mM.

B6: AgCGD2 (Arthrobacter globiformis NBRC 12137) (protein)
chain 1: MSEGIAGSGIELGITLYSLTSEFAAGLYTPETLIKAVADEGLGPGVEFNIAQMLRTYPDVDDDFVKLWRDSMDRYGLTPSAVGTNLDMGRRKDRDMTPDEEYDFFAAQLRTANKLGFHRVVIRSAGKELLRRLLPLAEKYDQKLGYEIHAPQGPNDPKILQIREMYAELGSDRLGFTADFSSTMHSLSPTLFRTLTQMGLPEEHFAVMQDIWRKPLPMQERNQEFEDYLRANNFDPAQLGPFTRLAFNMHGLVPPEEWLDIMPQIFHVHAKFYDIDENGNEPAMDIPRIVRQFVKGGYRGYLSSEWEGHAFADLGESDPIDLVKKQHSLMRRAIEEAVDPTVSQPALVETAK
chain 2: MATHNSLFQDSDVRKHPEGIAVSVQLPWYRSLWLSAVDDVAATVNGVKIPRESLRFELQGQTYSIAELPEQWETLWFVADKPDVVIPLDRIPDAGEEIDVEVILTLRLLYMQIAPMRYVGNRVAVERKVVLA
B6 was tested, and the kcat (purified protein [10]) was 0.667 ± 0.083 s⁻¹.

— publication PMC8563793, “C-Glycoside metabolism in the gut and in nature: Identification, characterization, structural analyses and distribution of C-C bond-cleaving enzymes” (Nature Communications, 2021)
